Biological target: T1, HLA-A*02:01 (peptide-receptive MHC class I monomer from UV-ligand exchange) (human)
T1 construct: Monomers were captured on streptavidin-coated plates
Assay: UV-exchange ELISA (anti-b2m); exchange yield grade: + >=10%, ++ >=20%, +++ >=50%, ++++ >=75%
Text: Candidate peptides for T cell based therapies according to the present invention were further tested for their MHC binding capacity (affinity). The individual peptide-MHC complexes were produced by UV-ligand exchange, where a UV-sensitive peptide is cleaved upon UV-irradiation, and exchanged with the peptide of interest as analyzed. Only peptide candidates that can effectively bind and stabilize the peptide-receptive MHC molecules prevent dissociation of the MHC complexes. To determine the yield of the exchange reaction, an ELISA was performed based on the detection of the light chain (β2m) of stabilized MHC complexes. The assay was performed as generally described in Rodenko et al. (Rodenko et al., 2006).
96 well MAXISorp plates (NUNC) were coated over night with 2 ug/ml streptavidin in PBS at room temperature, washed 4× and blocked for 1 h at 37° C. in 2% BSA containing blocking buffer. Refolded HLA-A*02:01/MLA-001 monomers served as standards, covering the range of 15-500 ng/ml. Peptide-MHC monomers of the UV-exchange reaction were diluted 100 fold in blocking buffer. Samples were incubated for 1 h at 37° C., washed four times, incubated with 2 ug/ml HRP conjugated anti-β2m for 1 h at 37° C., washed again and detected with TMB solution that is stopped with […]. Absorption was measured at 450 nm. Candidate peptides that show a high exchange yield (preferably higher than 50%, most preferred higher than 75%) are generally preferred for a generation and production of antibodies or fragments thereof, and/or T cell receptors or fragments thereof, as they show sufficient avidity to the MHC molecules and prevent dissociation of the MHC complexes.

Binder	peptide exchange yield
FLLAEDTKV [peptide FLLAEDTKV (SEQ ID NO 13)]	50 to 75%
ILYDLQQNL [peptide ILYDLQQNL (SEQ ID NO 113)]	20 to 50%
VLVDDDGIKVV [peptide VLVDDDGIKVV (SEQ ID NO 159)]	20 to 50%
ALDGDQMEL [peptide ALDGDQMEL (SEQ ID NO 109)]	20 to 50%
LVYQFVHPI [peptide LVYQFVHPI (SEQ ID NO 116)]	20 to 50%
SAQGSDVSLTACKV [peptide SAQGSDVSLTACKV (SEQ ID NO 151)]	50 to 75%
KLLEFDQLQL [peptide KLLEFDQLQL (SEQ ID NO 160)]	50 to 75%
RLLHEVQEL [peptide RLLHEVQEL (SEQ ID NO 163)]	50 to 75%
LLNDRIWLA [peptide LLNDRIWLA (SEQ ID NO 144)]	50 to 75%
ALLNAILHSA [peptide ALLNAILHSA (SEQ ID NO 132)]	50 to 75%
SLIERDLKL [peptide SLIERDLKL (SEQ ID NO 157)]	50 to 75%
KQFEGTVEI [peptide KQFEGTVEI (SEQ ID NO 138)]	50 to 75%
VLYEGVDEV [peptide VLYEGVDEV (SEQ ID NO 120)]	20 to 50%
KLLAVIHEL (also called RAD54B-002) [peptide KLLAVIHEL (SEQ ID NO 152)]	20 to 50%
SLAELVPGVGGI [peptide SLAELVPGVGGI (SEQ ID NO 108)]	50 to 75%
VLLNEILEQV [peptide VLLNEILEQV (SEQ ID NO 139)]	50 to 75%
KLGQVLIYL [peptide KLGQVLIYL (SEQ ID NO 112)]	20 to 50%

Binder	peptide exchange yield
VLIDVLKEL [peptide VLIDVLKEL (SEQ ID NO 129)]	50 to 75%
KLQEEIPVL [peptide KLQEEIPVL (SEQ ID NO 135)]	20 to 50%
RLADLEALKV [peptide RLADLEALKV (SEQ ID NO 150)]	50 to 75%
LLNEILEQV [peptide LLNEILEQV (SEQ ID NO 140)]	50 to 75%
SLMGMVLKL [peptide SLMGMVLKL (SEQ ID NO 122)]	50 to 75%
YQFDKVGILTL [peptide YQFDKVGILTL (SEQ ID NO 149)]	50 to 75%
LLADLKTMV [peptide LLADLKTMV (SEQ ID NO 118)]	50 to 75%
FLKNELDNV [peptide FLKNELDNV (SEQ ID NO 161)]	50 to 75%
SLAPNIISQL [peptide SLAPNIISQL (SEQ ID NO 121)]	50 to 75%
YLFEKTFNM [peptide YLFEKTFNM (SEQ ID NO 11)]	50 to 75%
LLLEVVKQV [peptide LLLEVVKQV (SEQ ID NO 145)]	50 to 75%
KLSDVWKEL [peptide KLSDVWKEL (SEQ ID NO 143)]	50 to 75%
GLGGSQLIDTHL [peptide GLGGSQLIDTHL (SEQ ID NO 130)]	20 to 50%
ILFSEDSTKLFV [peptide ILFSEDSTKLFV (SEQ ID NO 153)]	50 to 75%
LLGELPRLLLL [peptide LLGELPRLLLL (SEQ ID NO 110)]	50 to 75%
TLAKYLMEL [peptide TLAKYLMEL (SEQ ID NO 126)]	50 to 75%

More lines, now with the values ahead:

peptide exchange yield	Binder
20 to 50%	ALSDETWGL [peptide ALSDETWGL (SEQ ID NO 146)]
50 to 75%	RMYNKIFAI [peptide RMYNKIFAI (SEQ ID NO 10)]
50 to 75%	YALDLSTFL [peptide YALDLSTFL (SEQ ID NO 105)]
50 to 75%	ALIKQLFEA (also called ZNF-002) [peptide ALIKQLFEA (SEQ ID NO 1)]
20 to 50%	TLQPVDNSTISL [peptide TLQPVDNSTISL (SEQ ID NO 117)]
50 to 75%	SLISEKILL [peptide SLISEKILL (SEQ ID NO 106)]
50 to 75%	LQLDKEFQL [peptide LQLDKEFQL (SEQ ID NO 15)]
50 to 75%	SLFDVSHML [peptide SLFDVSHML (SEQ ID NO 115)]
≥ 75%	SLMMTIINL [peptide SLMMTIINL (SEQ ID NO 156)]
20 to 50%	RTFEKIEEV [peptide RTFEKIEEV (SEQ ID NO 133)]
50 to 75%	SLVQRVETI (also called ECT2-001) [peptide SLVQRVETI (SEQ ID NO 142)]
20 to 50%	FLDKPEDVLL [peptide FLDKPEDVLL (SEQ ID NO 14)]
50 to 75%	RLLGEEVVRV [peptide RLLGEEVVRV (SEQ ID NO 155)]
10 to 20%	TAVGHALVL [peptide TAVGHALVL (SEQ ID NO 114)]
50 to 75%	ALVQGILERV [peptide ALVQGILERV (SEQ ID NO 12)]
50 to 75%	KLMDYIDEL [peptide KLMDYIDEL (SEQ ID NO 162)]
20 to 50%	ILYQTVTGL [peptide ILYQTVTGL (SEQ ID NO 119)]

peptide exchange yield	Binder
50 to 75%	RLAELTVDEFLA [peptide RLAELTVDEFLA (SEQ ID NO 127)]
≥ 75%	AVIEHLERL [peptide AVIEHLERL (SEQ ID NO 141)]
20 to 50%	MLDDRAYLV [peptide MLDDRAYLV (SEQ ID NO 128)]
50 to 75%	RVLPPSALQSV [peptide RVLPPSALQSV (SEQ ID NO 124)]
50 to 75%	RLLENMTEVV [peptide RLLENMTEVV (SEQ ID NO 148)]
50 to 75%	QLTEIKPLL [peptide QLTEIKPLL (SEQ ID NO 137)]
50 to 75%	KLPSETIFVGC [peptide KLPSETIFVGC (SEQ ID NO 154)]
50 to 75%	GLLDPSVFHV [peptide GLLDPSVFHV (SEQ ID NO 158)]
20 to 50%	KTLERSYLL [peptide KTLERSYLL (SEQ ID NO 123)]
20 to 50%	KLLDVVHPA [peptide KLLDVVHPA (SEQ ID NO 131)]
≥ 75%	KLGDFGLLVEL [peptide KLGDFGLLVEL (SEQ ID NO 125)]
50 to 75%	ALLGGGPYML [peptide ALLGGGPYML (SEQ ID NO 107)]
≥ 75%	GVAGGSILKGV [peptide GVAGGSILKGV (SEQ ID NO 134)]
≥ 75%	TLTELRAFL [peptide TLTELRAFL (SEQ ID NO 147)]
50 to 75%	KLFDIFSQQV [peptide KLFDIFSQQV (SEQ ID NO 136)]
50 to 75%	ILLTIKDDTIYL [peptide ILLTIKDDTIYL (SEQ ID NO 104)]

Reference: US20160347808A1 (IMMATICS BIOTECHNOLOGIES, published 2016)
